Molecular target: purified 3xFlag-tagged B56γ (Xenopus laevis)
Experiment: pull-down (amylose beads) with immunoblot quantification
Conditions: chain shown with the change, purified Flag-B56γ, 23°C, 30 min, read off a plot

purified 3xFlag-tagged B56γ (Xenopus laevis), sequence (chain, as listed by the source): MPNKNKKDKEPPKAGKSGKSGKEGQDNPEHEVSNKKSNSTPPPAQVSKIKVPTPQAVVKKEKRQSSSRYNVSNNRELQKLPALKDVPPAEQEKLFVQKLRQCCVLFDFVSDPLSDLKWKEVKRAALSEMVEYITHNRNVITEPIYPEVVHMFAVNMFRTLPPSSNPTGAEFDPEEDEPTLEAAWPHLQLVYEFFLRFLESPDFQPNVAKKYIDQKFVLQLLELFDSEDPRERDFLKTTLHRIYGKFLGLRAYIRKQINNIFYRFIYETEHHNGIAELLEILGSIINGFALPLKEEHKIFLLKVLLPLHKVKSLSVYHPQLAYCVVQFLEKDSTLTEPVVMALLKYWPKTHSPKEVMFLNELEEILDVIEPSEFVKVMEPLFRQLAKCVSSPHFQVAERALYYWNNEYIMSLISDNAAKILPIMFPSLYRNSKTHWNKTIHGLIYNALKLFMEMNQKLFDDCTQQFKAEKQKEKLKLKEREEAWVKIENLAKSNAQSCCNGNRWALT

B1: MBP-fused Apc1-loop^500 wild type (residues 515-584 of Xenopus tropicalis Apc1), Q08D52 T532A; T539A; S558A (protein)
chain: GLAAPSLGMSNPMPRPSAPLESISAPAKPLNKHLAPMDEAGMLAPVPELRDSTRLHESTYLDDCTFHQFG
pre-incubated with Cdk2-cyclin A at 30°C for 60 min (+Cdk), parent: est. 5.3
  response: 1.2 A.U.
Without Cdk2-cyclin A pre-incubation, parent: 1.0
  response: 1 A.U.

— publication PMC6945068
